Source: patent US20250243290A1
Where “and” joins values, the source holds several entries; their conditions need not be identical. Identical values can stand only once.

What was measured:
[1] = biological target: VPE2LSCGSR2…; assay: peptide-array ELISA [Con't]
[2] = biological target: LSCGSR2…2T; assay: peptide-array ELISA [Con't]
[3] = biological target: VPE2LS2…2RPGW; assay: peptide-array ELISA [Con't]
[4] = biological target: 2…2RPGW; assay: peptide-array ELISA [Con't]
[5] = biological target: TETSDVV2…; assay: peptide-array ELISA [Con't]
[6] = biological target: VPE2LS2…2TREQNRIC; assay: peptide-array ELISA
[7] = biological target: E2LS2…2RP; assay: peptide-array ELISA
[8] = biological target: …2…2RP; assay: peptide-array ELISA
[9] = biological target: WNWVPE2…2; assay: peptide-array ELISA
[10] = biological target: QEGCRL2…; assay: peptide-array ELISA
[11] = biological target: S2…2RP; assay: peptide-array ELISA
[12] = biological target: 2…2RP; assay: peptide-array ELISA
[13] = biological target: VPE2LS2…2RP; assay: peptide-array ELISA
[14] = biological target: LWNWVPE2…2; assay: peptide-array ELISA
[15] = biological target: 2…2RPG; assay: peptide-array ELISA
[16] = biological target: PE2LS2…2RP; assay: peptide-array ELISA
[17] = biological target: LS2…2RPG; assay: peptide-array ELISA
[18] = biological target: S2…2RPG; assay: peptide-array ELISA
[19] = biological target: …2RP; assay: peptide-array ELISA
[20] = biological target: 2LS2…2RPGW; assay: peptide-array ELISA
[21] = biological target: VPE2LSCGSR2…2; assay: peptide-array ELISA
[22] = biological target: CEQNRI2T2RPGWY2…2TSTSPTRC; assay: peptide-array ELISA
[23] = biological target: LWNWVPE2…2T; assay: peptide-array ELISA
[24] = biological target: LS2…2RP; assay: peptide-array ELISA
[25] = biological target: LWNWVPE2…; assay: peptide-array ELISA
LWNWVPE2…, sequence (peptide, as listed by the source): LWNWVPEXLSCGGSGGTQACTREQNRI

QEGCRL2…, sequence (peptide, as listed by the source): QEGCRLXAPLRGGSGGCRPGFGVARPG

agonistic TNFR2 antibody MR2-1
Raw luminescence data [1]: 194
Raw luminescence data [2]: 194
Raw luminescence data [3]: 222
Raw luminescence data [4]: 224
Raw luminescence data [5]: 208
Raw luminescence data [6]: 399
Raw luminescence data [7]: 418
Raw luminescence data [8]: 459
Raw luminescence data [9]: 403
Raw luminescence data [10]: 428
Raw luminescence data [11]: 392
Raw luminescence data [12]: 510
Raw luminescence data [13]: 410
Raw luminescence data [14]: 525
Raw luminescence data [15]: 389
Raw luminescence data [16]: 483
Raw luminescence data [17]: 433
Raw luminescence data [18]: 385
Raw luminescence data [19]: 435 and 433
Raw luminescence data [20]: 366
Raw luminescence data [21]: 365
Raw luminescence data [22]: 413
Raw luminescence data [23]: 467
Raw luminescence data [24]: 584
Raw luminescence data [25]: 400
